# System: Fer (mouse)
# Assay: phosphorylation enrichment, bacterial display (enrichment ratio); higher = better substrate or ligand; peptides without Tyr show the background
# 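Note: 11-residue human phosphosite peptides and single-mutation variants displayed on the E. coli surface, counted by deep sequencing, each peptide's frequency after selection divided by its frequency in the unselected input library; frequency after pTyr selection over input frequency; kinase dosed for 20-30% of maximal phosphorylation in three min.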
row,Sequence,phosphorylation enrichment
1,MEIHAYHKLLE [LMNA_Y376_R377H],0.422
2,SPPILYSFFLN [FCRL6_Y239_D244N_YF],5.01
3,FDDDDYDMDFV [BLM_Y296_T298M],0.561
4,PAQAAYQKVVA [HBB_Y131_V127A],0.477
5,ERLLDYTRTVQ [INPP5E_Y439],0.544
6,LPEHPYHSRPR [NDUFA8_Y142_N140H],1.03
7,GTFVIYVRFGG [FLNB_Y1687_YF],0.4
8,CTTIHYNFKCN [TP53_Y234_M237K_YF],0.386
9,SGRRRYTIAAL [TTR_Y125_P122R],0.6
10,QLYGPYLRIHA [BSCL2_Y213_A212P],0.596
11,VIVRMYDFHVL [RPF2_Y109_G106V_YF],4.04
12,SARFRYLLAEK [LDHB_Y173_M175L],0.452
13,AYGNLYGSRKQ [YIPF7_Y59],0.367
14,SAAAIYMVRHP [PMP22_Y117_T118M],0.53
15,NFRPGYNNFFN [USH2A_Y467_YF],0.389
16,PYADPYYDYEI [ZC3H18_Y371],6.03
17,DFLEKYFKFGC [NNMT_Y24_S29C_YF],0.554
18,LDAFIYDAAVL [GRIN2A_Y730],20.3
19,ATDLAYFLVCK [ASL_Y375_R379C_YF],0.698
20,SKGYAYVHFDS [PABPC5_Y149],0.584
21,KVPAIYGVGTR [CPS1_Y162_D165G],0.377
22,ESMNTYLQTSP [NAT1_Y208],0.539
23,EEQKKNFNAMK [SCN5A_Y1494_Y1494N_YF],0.369
24,GFVEDYRPPFF [ACVRL1_Y421_I417F_YF],0.411
25,QYPDIYAREEV [CRX_Y67_V66I],1.29
26,TVQVAYFTVMM [SPATA17_Y83_M86V_YF],0.842
27,SLMNQYVNKKF [RAB7A_Y28],0.398
28,HVIKLYGACSQ [RET_Y791],0.545
29,TSSAGYRRTPS [ABI1_Y333_G331A],0.36

# Target: Fes (UniProt P07332)
# Sequence (P07332 whole entry, looked up): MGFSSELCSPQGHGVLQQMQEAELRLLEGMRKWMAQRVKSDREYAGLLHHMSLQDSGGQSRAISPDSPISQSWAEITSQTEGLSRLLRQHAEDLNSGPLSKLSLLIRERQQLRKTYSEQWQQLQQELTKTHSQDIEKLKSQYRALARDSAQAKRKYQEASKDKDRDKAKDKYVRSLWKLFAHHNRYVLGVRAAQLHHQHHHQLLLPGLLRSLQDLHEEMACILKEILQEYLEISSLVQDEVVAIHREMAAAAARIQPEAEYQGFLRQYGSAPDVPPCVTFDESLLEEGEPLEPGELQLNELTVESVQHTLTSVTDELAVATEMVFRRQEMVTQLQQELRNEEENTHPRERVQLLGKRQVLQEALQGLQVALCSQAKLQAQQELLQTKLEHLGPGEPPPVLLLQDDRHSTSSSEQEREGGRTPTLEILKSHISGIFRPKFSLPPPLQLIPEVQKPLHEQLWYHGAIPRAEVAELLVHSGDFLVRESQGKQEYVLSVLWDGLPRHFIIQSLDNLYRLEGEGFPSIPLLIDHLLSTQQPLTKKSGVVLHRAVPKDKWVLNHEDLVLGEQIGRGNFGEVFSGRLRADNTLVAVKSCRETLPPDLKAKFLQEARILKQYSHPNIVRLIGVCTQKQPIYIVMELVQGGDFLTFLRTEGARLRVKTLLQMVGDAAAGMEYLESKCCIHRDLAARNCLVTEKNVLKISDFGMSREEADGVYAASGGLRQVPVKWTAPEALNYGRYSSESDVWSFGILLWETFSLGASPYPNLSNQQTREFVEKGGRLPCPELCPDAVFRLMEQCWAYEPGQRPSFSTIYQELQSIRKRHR
# Assay: as above
row,Sequence,phosphorylation enrichment
1,MEIHAYHKLLE [LMNA_Y376_R377H],1.25
2,SPPILYSFFLN [FCRL6_Y239_D244N_YF],1.17
3,FDDDDYDMDFV [BLM_Y296_T298M],1.23
4,PAQAAYQKVVA [HBB_Y131_V127A],0.771
5,ERLLDYTRTVQ [INPP5E_Y439],1.06
6,LPEHPYHSRPR [NDUFA8_Y142_N140H],3.08
7,GTFVIYVRFGG [FLNB_Y1687_YF],1.18
8,CTTIHYNFKCN [TP53_Y234_M237K_YF],0.75
9,SGRRRYTIAAL [TTR_Y125_P122R],0.622
10,QLYGPYLRIHA [BSCL2_Y213_A212P],1.12
11,VIVRMYDFHVL [RPF2_Y109_G106V_YF],1.01
12,SARFRYLLAEK [LDHB_Y173_M175L],0.697
13,AYGNLYGSRKQ [YIPF7_Y59],0.462
14,SAAAIYMVRHP [PMP22_Y117_T118M],0.77
15,NFRPGYNNFFN [USH2A_Y467_YF],0.772
16,PYADPYYDYEI [ZC3H18_Y371],2.33
17,DFLEKYFKFGC [NNMT_Y24_S29C_YF],1.38
18,LDAFIYDAAVL [GRIN2A_Y730],1.53
19,ATDLAYFLVCK [ASL_Y375_R379C_YF],1.61
20,SKGYAYVHFDS [PABPC5_Y149],1.25
21,KVPAIYGVGTR [CPS1_Y162_D165G],0.576
22,ESMNTYLQTSP [NAT1_Y208],0.947
23,EEQKKNFNAMK [SCN5A_Y1494_Y1494N_YF],0.711
24,GFVEDYRPPFF [ACVRL1_Y421_I417F_YF],0.987
25,QYPDIYAREEV [CRX_Y67_V66I],2.14
26,TVQVAYFTVMM [SPATA17_Y83_M86V_YF],1.55
27,SLMNQYVNKKF [RAB7A_Y28],0.579
28,HVIKLYGACSQ [RET_Y791],1.58
29,TSSAGYRRTPS [ABI1_Y333_G331A],0.594

# System: AncSZ
# Assay: as above
row,Sequence,phosphorylation enrichment
1,MEIHAYHKLLE [LMNA_Y376_R377H],0.974
2,SPPILYSFFLN [FCRL6_Y239_D244N_YF],1.08
3,FDDDDYDMDFV [BLM_Y296_T298M],1.29
4,PAQAAYQKVVA [HBB_Y131_V127A],0.647
5,ERLLDYTRTVQ [INPP5E_Y439],0.945
6,LPEHPYHSRPR [NDUFA8_Y142_N140H],1.97
7,GTFVIYVRFGG [FLNB_Y1687_YF],1.15
8,CTTIHYNFKCN [TP53_Y234_M237K_YF],0.795
9,SGRRRYTIAAL [TTR_Y125_P122R],0.602
10,QLYGPYLRIHA [BSCL2_Y213_A212P],0.87
11,VIVRMYDFHVL [RPF2_Y109_G106V_YF],1.08
12,SARFRYLLAEK [LDHB_Y173_M175L],0.724
13,AYGNLYGSRKQ [YIPF7_Y59],0.525
14,SAAAIYMVRHP [PMP22_Y117_T118M],0.756
15,NFRPGYNNFFN [USH2A_Y467_YF],0.773
16,PYADPYYDYEI [ZC3H18_Y371],4.79
17,DFLEKYFKFGC [NNMT_Y24_S29C_YF],1.11
18,LDAFIYDAAVL [GRIN2A_Y730],1.18
19,ATDLAYFLVCK [ASL_Y375_R379C_YF],1.6
20,SKGYAYVHFDS [PABPC5_Y149],1.22
21,KVPAIYGVGTR [CPS1_Y162_D165G],0.47
22,ESMNTYLQTSP [NAT1_Y208],1
23,EEQKKNFNAMK [SCN5A_Y1494_Y1494N_YF],0.908
24,GFVEDYRPPFF [ACVRL1_Y421_I417F_YF],0.944
25,QYPDIYAREEV [CRX_Y67_V66I],3.09
26,TVQVAYFTVMM [SPATA17_Y83_M86V_YF],1.44
27,SLMNQYVNKKF [RAB7A_Y28],0.474
28,HVIKLYGACSQ [RET_Y791],1.13
29,TSSAGYRRTPS [ABI1_Y333_G331A],0.565

# Target: Fyn (UniProt P06241)
# Sequence (P06241 whole entry, looked up): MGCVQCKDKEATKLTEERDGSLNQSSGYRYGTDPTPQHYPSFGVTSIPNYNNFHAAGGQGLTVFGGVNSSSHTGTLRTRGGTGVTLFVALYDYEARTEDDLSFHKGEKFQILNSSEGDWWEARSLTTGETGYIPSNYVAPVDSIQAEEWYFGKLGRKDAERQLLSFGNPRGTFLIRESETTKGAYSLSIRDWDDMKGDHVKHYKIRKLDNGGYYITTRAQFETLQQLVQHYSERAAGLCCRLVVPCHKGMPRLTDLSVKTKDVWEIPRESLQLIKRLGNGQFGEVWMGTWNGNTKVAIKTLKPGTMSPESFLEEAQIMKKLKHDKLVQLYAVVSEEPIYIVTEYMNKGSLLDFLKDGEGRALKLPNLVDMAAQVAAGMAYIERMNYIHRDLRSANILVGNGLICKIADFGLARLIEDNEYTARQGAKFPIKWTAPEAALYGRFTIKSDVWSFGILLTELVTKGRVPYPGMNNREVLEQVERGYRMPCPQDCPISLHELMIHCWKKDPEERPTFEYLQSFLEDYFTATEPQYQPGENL
# Assay: as above
row,Sequence,phosphorylation enrichment
1,MEIHAYHKLLE [LMNA_Y376_R377H],0.445
2,SPPILYSFFLN [FCRL6_Y239_D244N_YF],2.46
3,FDDDDYDMDFV [BLM_Y296_T298M],0.613
4,PAQAAYQKVVA [HBB_Y131_V127A],0.879
5,ERLLDYTRTVQ [INPP5E_Y439],0.495
6,LPEHPYHSRPR [NDUFA8_Y142_N140H],2.04
7,GTFVIYVRFGG [FLNB_Y1687_YF],0.353
8,CTTIHYNFKCN [TP53_Y234_M237K_YF],0.405
9,SGRRRYTIAAL [TTR_Y125_P122R],0.61
10,QLYGPYLRIHA [BSCL2_Y213_A212P],2.04
11,VIVRMYDFHVL [RPF2_Y109_G106V_YF],0.555
12,SARFRYLLAEK [LDHB_Y173_M175L],0.514
13,AYGNLYGSRKQ [YIPF7_Y59],1.38
14,SAAAIYMVRHP [PMP22_Y117_T118M],4.97
15,NFRPGYNNFFN [USH2A_Y467_YF],0.522
16,PYADPYYDYEI [ZC3H18_Y371],6.02
17,DFLEKYFKFGC [NNMT_Y24_S29C_YF],0.435
18,LDAFIYDAAVL [GRIN2A_Y730],9.56
19,ATDLAYFLVCK [ASL_Y375_R379C_YF],0.564
20,SKGYAYVHFDS [PABPC5_Y149],0.449
21,KVPAIYGVGTR [CPS1_Y162_D165G],2.27
22,ESMNTYLQTSP [NAT1_Y208],0.469
23,EEQKKNFNAMK [SCN5A_Y1494_Y1494N_YF],0.376
24,GFVEDYRPPFF [ACVRL1_Y421_I417F_YF],0.442
25,QYPDIYAREEV [CRX_Y67_V66I],1.84
26,TVQVAYFTVMM [SPATA17_Y83_M86V_YF],0.595
27,SLMNQYVNKKF [RAB7A_Y28],0.383
28,HVIKLYGACSQ [RET_Y791],0.489
29,TSSAGYRRTPS [ABI1_Y333_G331A],0.484
